The values that follow come from article doi:10.1101/2023.07.17.549284.

The target in the test is ndufs4^-/- complex I (N-module plus QP subcomplex) (mouse (endogenous in heart and kidney)) (UniProt Q91YT0). In words: cryo-EM structure.

assembly factor NDUFAF2 (natural protein), sequence (Q59J78 whole entry): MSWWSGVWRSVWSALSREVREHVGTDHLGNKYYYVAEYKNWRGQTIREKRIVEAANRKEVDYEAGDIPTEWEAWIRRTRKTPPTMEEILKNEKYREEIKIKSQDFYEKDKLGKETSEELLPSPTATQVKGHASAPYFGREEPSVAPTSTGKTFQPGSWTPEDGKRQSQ

With “assembly factor NDUFAF2 (natural protein)”, the percent of particles that contain NDUFAF2 amounted to 14%.
